Assay [1] addresses CADM1 on small cell lung cancer cell lines H146 and H69 (human) (UniProt Q9BY67). Kind of assay: flow cytometry, 1 ug scFv on 5x10^5 H69 cells, PE anti-HA. (In general: A flow cytometer gives signals particle by particle.)
The target is the same in assay [2]. In words: flow cytometry, 1 ug scFv on 5x10^5 H146 cells, PE anti-HA.
For assay [3], the target named is T1, CADM1 peptide structure expressed on cells (CADM1 peptide, Myc tag, hinge, transmembrane domain, GFP) (human).
T1 sequence: DSRAGEEGSIRAVDH
Kind of assay: flow cytometry, 1 ug scFv on 5x10^5 cells with the CADM1 peptide structure, PE anti-HA.

The values that follow come from KR20220167207A.

B1: 4A2 (scFv, V domains shown)
VH: AVTLDESGGGLQTPGRALSLACKGSGFTFSSYAMNWVRQAPGKGLEFVAQITSSGRYTYYGTAVKGRATISRDNGQSTVRLQLNNLRAEDSGTYYCAKDAAAGYYDGATAGDIDAWGHGTEVIVSS
VL: LTQPSSVSANPGETVKITCSGGYNRYGWYQQKSPGSAPVTVIYSNNQRPSNIPSRFSGSKSGSTATLTITGVQAEDEAVYYCGSYDSSDGYAGIFGAGTTLTVL
As for B1, the figures for the 결합력 % in assay [1], in assay [2] and in assay [3] were 29.1%, 10.2% and 16.3%, respectively.

B2: 4A8 (scFv, V domains shown)
VH: AVTLDESGGGLQTPGGGLSLVCKASGFTFSSYAMNWVRQAPGKGLEFVAQITSSGRYTYYGTAVKGRATISRDNGQSTVRLQLNNLRAEDSGTYYCAKDAAAGYYDGATAGDIDAWGHGTEVIVSS
VL: LTQPSSVSANLGGTVKITCSGGSGSNHYGWYQQKSPGSAPVTVIYSNNKRPSNIPSRFSGSKFGSTATLTITGVQADDEAVYYCGGYDSSAGYIGPFGAGTTLTVL
B2: the 결합력 % in assay [1] is 61.1%; in assay [2], 9.7%; in assay [3] it was 14.7%.

B3: RB11 (scFv, V domains shown)
VH: AVTLDESGGGLQTPGGGLSLVCKGSGFTFSSYAMNWVRQAPGKGLEFVAQITSSGRYTYYGTAVKGRATISRDNGQSTVRLQLNNLRAEDSGTYYCAKDAAAGYYDGATAGDIDAWGHGTEVIVSS
VL: LTQPSSVSANPGGTVKITCSGGSGSYGWFQQKAPGSAPVTLIYANTNRPSDIPSRFSGSKSGSTATLTITGVQVEDEAVYYCGSTDSSYVSIFGAGTTLTVL
Regarding B3, the 결합력 % in assay [1] came out at 61.8%; in assay [2] it was 33.6%; in assay [3], 16%.

B4: RH6 (scFv, V domains shown)
VH: AVTLDESGGGLQTPGGGLSLVCKGSGFTFSSYAMNWVRQAPGKGLEFVAQITSSGRYTYYGTAVKGRATISRDNGQSTVRLQLNNLRAEDSGTYYCAKDAAAGYYDGATAGDIDAWGHGTEVIVSS
VL: VTQPSSVSANPGESVKITCSGGSYSYGWYQQKSPGSAPVTVIYSNNQRPSNIPSRFSGSTSGSTSTLTITGVQADDEAVYFCGTFDSSTNAAFGAGTTLTVL
With B4, the 결합력 % came out at 12% in assay [1], 4.5% in assay [2] and 15.3% in assay [3].
